In patent US20120316071A1 (published 2012):
Values belong to the binder of their own block, whether it stands above or below them.

Assays:
[1] = biological target: T1, rHuman Erythropoietin R/Fc Chimera, CF (R&D Systems Cat#963-ER) (human, UniProt P19235 25-250); test: ECL Multispot (MSD), antigen spotted; Fab 0.50 (µM); blank 142
T1 construct: Bought recombinant protein; also called EPO R; EPO R/Fc; Fc part of the bought chimera not given
T1 sequence (looked up): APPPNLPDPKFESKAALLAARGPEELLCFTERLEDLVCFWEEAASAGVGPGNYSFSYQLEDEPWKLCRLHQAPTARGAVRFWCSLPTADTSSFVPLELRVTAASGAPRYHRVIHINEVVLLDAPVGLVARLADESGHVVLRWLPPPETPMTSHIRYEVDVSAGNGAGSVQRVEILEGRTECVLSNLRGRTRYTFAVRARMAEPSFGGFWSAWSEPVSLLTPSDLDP

[2] = biological target: T2, rHuman ErbB2/Fc Chimera, CF (R&D Systems Cat#1129-ER) (human, UniProt P04626 23-652); test: as above
T2 construct: Bought recombinant protein; Fc part of the bought chimera not given

[3] = biological target: T3, rHuman HGF R/c-MET/Fc Chimera, CF (R&D Systems Cat#358-MT/CF) (human, UniProt P08581 25-932); test: as above
T3 construct: Bought recombinant protein; also called HGF R/Fc; Fc part of the bought chimera not given

[4] = biological target: T4, rHuman CD44/Fc Chimera, CF (R&D Systems Cat#3660-CD) (human, UniProt P16070 21-220); test: as above
T4 construct: Bought recombinant protein; Fc part of the bought chimera not given

[5] = biological target: T5, rHuman IGF-1 sR, CF (R&D Systems Cat#391-GR) (human, UniProt P08069 31-932); test: as above
T5 construct: Bought recombinant soluble receptor; also called insulin-like growth factor-1 soluble receptor

[6] = biological target: T6, rHuman P-Cadherin/Fc Chimera, CF (R&D Systems Cat#861-PC) (human, UniProt P22223 108-654); test: as above
T6 construct: Bought recombinant protein; Fc part of the bought chimera not given

[7] = biological target: T7, rHuman EGF R/Fc Chimera, CF (R&D Systems Cat#344-ER) (human, UniProt P00533 25-645); test: MSD multispot ECL, antigen spotted on plate, Fab 44.1 nM; blank spot 200
T7 construct: Bought from R&D Systems; also called epidermal growth factor receptor (EGF R); not shown: Fc of the bought chimera

[8] = biological target: T8, rHuman HGF R/c-MET/Fc Chimera, CF (R&D Systems Cat#358-MT/CF) (human, UniProt P08581 25-932); test: as above
T8 construct: Bought from R&D Systems; also called HGF R/Fc; hepatocyte growth factor receptor (HGF R/c-Met); not shown: Fc of the bought chimera

[9] = biological target: T9, rHuman IGF-1 sR, (IGF-1 sR), CF (R&D Systems Cat#391-GR) (human, UniProt P08069 31-932); test: as above
T9 construct: Bought from R&D Systems and called a soluble receptor; also called insulin-like growth factor-1 soluble receptor

[10] = biological target: T10, rHuman P-Cadherin/Fc Chimera, CF (R&D Systems Cat#861-PC) (human, UniProt P22223 108-654); test: as above
T10 construct: Bought from R&D Systems; not shown: Fc of the bought chimera

[11] = biological target: T11, rHuman Erythropoietin R/Fc Chimera, CF (R&D Systems Cat#963-ER) (human, UniProt P19235 25-250); test: Multispot ECL (MSD) titration; antigen spotted on plate; Fab 392.5 nM; blank spot 338
T11 construct: Bought Fc chimera; also called EPO R/Fc; EPO R; Fc part of the bought chimera not given
T11 sequence (looked up): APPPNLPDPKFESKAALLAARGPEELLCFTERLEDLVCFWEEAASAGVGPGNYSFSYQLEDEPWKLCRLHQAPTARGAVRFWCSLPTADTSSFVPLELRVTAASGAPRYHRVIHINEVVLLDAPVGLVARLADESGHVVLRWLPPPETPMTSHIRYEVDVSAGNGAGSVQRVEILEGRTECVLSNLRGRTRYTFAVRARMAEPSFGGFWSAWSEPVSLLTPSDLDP

[12] = biological target: T12, Recombinant Human DLL4 (R&D Systems Cat#1506-D4/CF) (human, UniProt Q9NR61 27-524); test: as above
T12 construct: Bought recombinant protein; also called delta-like protein 4; rHuman DLL4

[13] = biological target: T13, rHuman ErbB2/Fc Chimera, CF (R&D Systems Cat#1129-ER) (human, UniProt P04626 23-652); test: as above
T13 construct: Bought Fc chimera; also called human epidermal growth factor 2 receptor; Fc part of the bought chimera not given

[14] = biological target: T14, rHuman HGF R/c-MET/Fc Chimera, CF (R&D Systems Cat#358-MT/CF) (human, UniProt P08581 25-932); test: as above
T14 construct: Bought Fc chimera; also called HGF R/Fc; hepatocyte growth factor receptor; Fc part of the bought chimera not given

[15] = biological target: T15, rHuman Notch-1/Fc Chimera, CF (R&D Systems Cat#3647-TK) (human, UniProt P46531 19-526); test: as above
T15 construct: Bought Fc chimera; Fc part of the bought chimera not given

[16] = biological target: T16, rHuman CD44/Fc Chimera, CF (R&D Systems Cat#3660-CD) (human, UniProt P16070 21-220); test: as above
T16 construct: Bought Fc chimera; Fc part of the bought chimera not given

[17] = biological target: T17, rHuman IGF-1 sR (IGF-1 sR), CF (R&D Systems Cat#391-GR) (human, UniProt P08069 31-932); test: as above
T17 construct: Bought soluble receptor; also called insulin-like growth factor-1 soluble receptor

[18] = biological target: T18, rHuman P-Cadherin/Fc Chimera, CF (R&D Systems Cat#861-PC) (human, UniProt P22223 108-654); test: as above
T18 construct: Bought Fc chimera; Fc part of the bought chimera not given

ECL signal [1]: 235
ECL signal [2]: 199
ECL signal [3]: 182
ECL signal [4]: 207
ECL signal [5]: 190
ECL signal [6]: 161
B1: Fab VH1-46_IGHD6-6*01_IGHJ1*01 S102A/S103P/S104F (APF) & L6_IGKJ1*01 (Fab, V domains shown)
VH: QVQLVQSGAEVKKPGASVKVSCKASGYTFTSYYMHWVRQAPGQGLEWMGIINPSGGSTSYAQKFQGRVTMTRDTSTSTVYMELSSLRSEDTAVYYCAREEYAPFSAEYFQHWGQGTLVTVSS
VL: not shown
notes: Tested as a Fab made in E. coli: VH cloned in Plasmid A (CH1 constant region, His6 and Flag tags), VL in Plasmid C (kappa constant region); also called H:APF & L:wt; APF triple mutant

ECL signal [7]: 428
ECL signal [8]: 336
ECL signal [9]: 309
ECL signal [10]: 343
B2: Fab VH1-46_IGHD3-10*01_IGHJ4*01 & B3_IGKJ1*01 (Fab, V domains shown)
VH: QVQLVQSGAEVKKPGASVKVSCKASGYTFTSYYMHWVRQAPGQGLEWMGIINPSGGSTSYAQKFQGRVTMTRDTSTSTVYMELSSLRSEDTAVYYCAREYYYGSGSYYNDYFDYWGQGTLVTVSS
VL: not shown
notes: Tested as a Fab made in E. coli; VH was cloned into Plasmid A (CH1 constant region, His6 and Flag tags); The kappa VL was cloned into Plasmid C (kappa CL)

ECL signal [11]: 5860
ECL signal [12]: 735
ECL signal [13]: 539
ECL signal [14]: 581
ECL signal [15]: 749
ECL signal [16]: 498
ECL signal [17]: 466
ECL signal [18]: 459
B3: Fab VH1-46_IGHD3-10*01_IGHJ4*01 & O1_IGKJ1*01 (Fab, V domains shown)
VH: QVQLVQSGAEVKKPGASVKVSCKASGYTFTSYYMHWVRQAPGQGLEWMGIINPSGGSTSYAQKFQGRVTMTRDTSTSTVYMELSSLRSEDTAVYYCAREYYYGSGSYYNDYFDYWGQGTLVTVSS
VL: DIVMTQTPLSLPVTPGEPASISCRSSQSLLDSDDGNTYLDWYLQKPGQSPQLLIYTLSYRASGVPDRFSGSGSGTDFTLKISRVEAEDVGVYYCMQRIEFPSWTFGQGTKVEIKR
notes: Germline library Fab expressed in E. coli; VH was cloned into Plasmid A (CH1 constant region, His6 and Flag tags); The kappa VL was cloned into Plasmid C (kappa CL)
